This note sets out measurements from article doi:10.1101/2022.08.17.504349.

In the assay the target is RGA5-HMA5 labeled with NT-647 (MST) (rice) (UniProt F7J0N2). In words: MST.

With “AVR-PikD, recombinant (MST and HDX-MS) (natural protein)”, the Kd (commonly the concentration at which binding is half-saturated) turned out to be 12 µM.
